Data on 173 variants can be found in publication PMC7954794, “Protein context shapes the specificity of SH3 domain-mediated interactions in vivo” (Nature Communications, 2021).

B1: S. cerevisiae Abp1 (full length; SH3 domain 535-592 mutated) / Hua2 (parent)
chain 1: MALEPIDYTTHSREIDAEYLKIVRGSDPDTTWLIISPNAKKEYEPESTGSSFHDFLQLFDETKVQYGLARVSPPGSDVEKIIIIGWCPDSAPLKTRASFAANFAAVANNLFKGYHVQVTARDEDDLDENELLMKISNAAGARYSIQTSSKQQGKASTPPVKKSFTPSKSPAPVSKKEPVKTPSPAPAAKISSRVNDNNDDDDWNEPELKERDFDQAPLKPNQSSYKPIGKIDLQKVIAEEKAKEDPRLVQKPTAAGSKIDPSSDIANLKNESKLKRDSEFNSFLGTTKPPSMTESSLKNDDDKVIKGFRNEKSPAQLWAERKAKQNSGNAETKAEAPKPEVPEDEPEGEPDVKDLKSKFEGLAASEKEEEEMENKFAPPPKKSEPTIISPKPFSKPQEPVKAEEAEQPKTDYKKIGNPLPGMHIEADNEEEPEENDDDWDDDEDEAAQPPLPSRNVASGAPVQKEEPEQEEIAPSLPSRNSIPAPKQEEAPEQAPEEEIEEEAEEAAPQLPSRSSAAPPPPPRRATPEKKPKENPWATAEYDYDAAEDNELTFVENDKIINIEFVDDDWWLGELEKDGSKGLFPSNYVSLGN
chain 2: MQQTKFGKMYLDHDSVVEYSEDEIVEADRITLGYKKRLSMIENQMRHLLEDFSLDVQQIEPILADLQKYYDAFLQLLQKRNKSLQCKRSTHQPVPSPMNSQTSTNAKVNLSGKLMKFQLNSVQKFDEENILRILQNKIEFEHYFQIDKGKKQKVLLLAVYQCLNGPTRLHKVLNIEGIIHNNSIRTILGKQVSSSKWTVFLYDVKLVLLAHRQDVPNLETSKMIVRYGDLFPCALYFKDHTAY

Variants of B1 are the subject of the first experiment. The experiment in a line: DHFR protein-fragment complementation in yeast (Abp1-DHFR F[1,2] x partner-DHFR F[3]), deep mutational scanning, second methotrexate selection vs reference. The following applies: with Hua2; S. cerevisiae, DHFR-PCA selection in liquid with methotrexate at 30 C, two 72 h selections (the score uses the second); reference = the pre-selection culture; not an affinity; value at the no-binding floor (a bound); scale: DMS score: mean over two replicates of log2(f_test/f_ref + 0.5)/ln 2, minus the synonymous-codon median.
As to chain 1 I559P, the screen value was less than -3.06. Regarding chain 1 I559C, the screen value is -3.01.

Consider chain 1 I559A, for which the screen value is less than -3.06. Still for that read-out and setting: the same measure for chain 1 I559G: -3.05. On to chain 1 I559K, for which the screen value was less than -3.06.

Take chain 1 I559H: the screen value was less than -3.06. As for chain 1 I559E, the screen value is -3. On the same count and under the same terms, then chain 1 I559R, with -3.03. Take chain 1 I559Q: the screen value is less than -3.06. On the same count and under the same terms, then chain 1 I559D, with -3.04; and chain 1 I559W, with less than -3.06; and chain 1 L551A, with -3.04. Regarding chain 1 L551S, the screen value was less than -3.06. The same measure, in the same setting: then chain 1 L551W, with less than -3.06; and chain 1 L551G, with less than -3.06. The same measure, in the same setting: then chain 1 L551K, with less than -3.06; and chain 1 L551Y, with less than -3.06; and chain 1 L551H, with -2.98. The same measure, in the same setting: then chain 1 L551D, with less than -3.06.

With chain 1 I560P, the screen value is less than -3.06. chain 1 F583T: the screen value was less than -3.06. Regarding chain 1 F583R, the screen value is -3.02. Still for that read-out and setting: then chain 1 F583N, with less than -3.06; and chain 1 F583D, with less than -3.06. On the same count and under the same terms, the same measure for chain 1 F583K: less than -3.06. The same measure, in the same setting: the same measure for chain 1 F583E: less than -3.06; for chain 1 F583W: less than -3.06.

As to chain 1 F583G, the screen value was less than -3.06. As to chain 1 F583P, the screen value was less than -3.06. Turning to chain 1 F583Q, the screen value was less than -3.06. Same read-out and setting: the same measure for chain 1 F583M: less than -3.06. Still for that read-out and setting: then chain 1 F583H, with less than -3.06. On the same count and under the same terms, then chain 1 I562R, with less than -3.06; and chain 1 I562D, with less than -3.06.

Turning to chain 1 I562P, the screen value was less than -3.06.

For chain 1 I562E, the screen value was less than -3.06. As for chain 1 I562H, the screen value is less than -3.06.

Take chain 1 I562A: the screen value is less than -3.06. The same measure, in the same setting: the same measure for chain 1 I562G: -3.04; for chain 1 I562Y: -3.03. On the same count and under the same terms, then chain 1 I562K, with -3.03; and chain 1 I562Q, with less than -3.06. Still for that read-out and setting: the same measure for chain 1 Y587P: less than -3.06; for chain 1 Y587G: -3; for chain 1 Y587E: -2.98. For chain 1 T552L, the screen value is -3.04. For the variant chain 1 T552W, the screen value is less than -3.06. Turning to chain 1 V588R, the screen value was less than -3.06. On the same count and under the same terms, the same measure for chain 1 V588P: less than -3.06; for chain 1 V588Y: less than -3.06. For the variant chain 1 V588Q, the screen value was -3.02.

As to chain 1 V588S, the screen value was less than -3.06. Take chain 1 V588K: the screen value is -3.04. Same read-out and setting: the same measure for chain 1 V588H: less than -3.06; for chain 1 V588N: less than -3.06. chain 1 Y543I: the screen value was less than -3.06. Still for that read-out and setting: the same measure for chain 1 Y543G: -3.04; for chain 1 Y543E: less than -3.06.

Turning to chain 1 Y543L, the screen value is -3.02. Still for that read-out and setting: then chain 1 Y543T, with -3.01. Regarding chain 1 Y543M, the screen value was less than -3.06. For chain 1 Y543V, the screen value is less than -3.06. Consider chain 1 Y543P, for which the screen value is less than -3.06. On the same count and under the same terms, then chain 1 Y543R, with -3.05; and chain 1 Y543A, with less than -3.06. Regarding chain 1 W569I, the screen value is -2.99. As for chain 1 W569P, the screen value was less than -3.06. Same read-out and setting: the same measure for chain 1 W569D: -3.03; for chain 1 W569H: -3.05; for chain 1 W569T: less than -3.06. Still for that read-out and setting: then chain 1 W569S, with -2.99.

With chain 1 W569A, the screen value is less than -3.06. Consider chain 1 W569N, for which the screen value was less than -3.06. Regarding chain 1 W570P, the screen value was less than -3.06.

Take chain 1 W570Q: the screen value is -3.01. For chain 1 W570D, the screen value was less than -3.06. As for chain 1 W570A, the screen value was less than -3.06. On the same count and under the same terms, then chain 1 W570E, with -3.03; and chain 1 W570I, with less than -3.06.

In the case of chain 1 W570H, the screen value is less than -3.06. Turning to chain 1 W570V, the screen value was -3.02. On the same count and under the same terms, the same measure for chain 1 W570M: -3.02; for chain 1 W570T: less than -3.06; for chain 1 W570K: less than -3.06. Same read-out and setting: then chain 1 G578W, with -3.01. Turning to chain 1 G578I, the screen value is less than -3.06.

On to chain 1 G578P, for which the screen value is less than -3.06. On the same count and under the same terms, the same measure for chain 1 G572Q: less than -3.06; for chain 1 G572K: less than -3.06; for chain 1 G572F: less than -3.06. chain 1 G572Y: the screen value is less than -3.06. Consider chain 1 G572L, for which the screen value is -3.04. On the same count and under the same terms, the same measure for chain 1 G572T: -3.04. In the case of chain 1 G572S, the screen value is less than -3.06. On the same count and under the same terms, the same measure for chain 1 G572M: less than -3.06; for chain 1 G572C: less than -3.06. For the variant chain 1 G572I, the screen value was less than -3.06.

For the variant chain 1 G572P, the screen value was less than -3.06. chain 1 G572D: the screen value is less than -3.06. As to chain 1 G572A, the screen value is -3.02. With chain 1 G572H, the screen value was less than -3.06. The same measure, in the same setting: the same measure for chain 1 L582A: -3.04; for chain 1 L582D: -2.99; for chain 1 L582T: -3.01.

For the variant chain 1 L582E, the screen value was -3.03. chain 1 L582G: the screen value is -3. Same read-out and setting: then chain 1 N561L, with -3.02. Consider chain 1 N561F, for which the screen value is less than -3.06. Still for that read-out and setting: the same measure for chain 1 N561V: -3.02; for chain 1 N561P: less than -3.06; for chain 1 N561W: less than -3.06. With chain 1 L590G, the screen value was -3.05. Turning to chain 1 L590D, the screen value was less than -3.06. Still for that read-out and setting: the same measure for chain 1 L590N: less than -3.06.

Take chain 1 G581L: the screen value was less than -3.06.

On to chain 1 G581P, for which the screen value was less than -3.06. Take chain 1 G581N: the screen value is less than -3.06.

In the case of chain 1 G581M, the screen value was less than -3.06. Consider chain 1 G581T, for which the screen value is less than -3.06. On the same count and under the same terms, then chain 1 G581E, with -3.02.

As for chain 1 G581Q, the screen value is less than -3.06. Same read-out and setting: then chain 1 G581W, with less than -3.06; and chain 1 G581Y, with less than -3.06; and chain 1 G581H, with less than -3.06. In the case of chain 1 G581F, the screen value was -3.01. Same read-out and setting: then chain 1 G581I, with less than -3.06. Consider chain 1 G581K, for which the screen value was -3.01. For the variant chain 1 K580P, the screen value was -2.98. Same read-out and setting: then chain 1 V554P, with -3.04; and chain 1 L574E, with less than -3.06; and chain 1 L574W, with -3.03.

With chain 1 L574F, the screen value was -3.03. Still for that read-out and setting: then chain 1 L574D, with less than -3.06. Still for that read-out and setting: then chain 1 P584I, with less than -3.06; and chain 1 P584E, with less than -3.06; and chain 1 P584C, with -3.02.

With chain 1 P584D, the screen value was less than -3.06. For the variant chain 1 P584W, the screen value is -3.02.

Turning to chain 1 P584M, the screen value is less than -3.06. The same measure, in the same setting: then chain 1 P584G, with less than -3.06. As for chain 1 P584F, the screen value was -3. The same measure, in the same setting: then chain 1 P584Q, with -3.01; and chain 1 P584K, with less than -3.06; and chain 1 P584V, with less than -3.06. chain 1 Y541P: the screen value is less than -3.06. As for chain 1 S585L, the screen value is -2.99. On the same count and under the same terms, the same measure for chain 1 S585F: -2.99.

chain 1 S585W: the screen value was -3.01. As to chain 1 S585D, the screen value was -3.03.

For the variant chain 1 S585Y, the screen value is less than -3.06.

Still in this experiment, the particulars now being: with Hua2; S. cerevisiae, DHFR-PCA selection in liquid with methotrexate at 30 C, two 72 h selections (the score uses the second); reference = the pre-selection culture; value at the no-binding floor (a bound); scale: DMS score: mean over two replicates of log2(f_test/f_ref + 0.5)/ln 2, minus the synonymous-codon median.
On to chain 1 E547R, for which the screen value was -3.04.

Take chain 1 D567T: the screen value was -3. In the case of chain 1 D567K, the screen value is -3.03. As for chain 1 D567S, the screen value is -3.02. With chain 1 D567C, the screen value is less than -3.06. Same read-out and setting: then chain 1 D567R, with less than -3.06. Still for that read-out and setting: then chain 1 D567I, with less than -3.06; and chain 1 D567P, with less than -3.06; and chain 1 N586R, with -2.99.

As for chain 1 D568K, the screen value was less than -3.06. Same read-out and setting: the same measure for chain 1 D568I: less than -3.06; for chain 1 D568M: less than -3.06. On to chain 1 D568L, for which the screen value was less than -3.06. For chain 1 D568Q, the screen value was -3.01. Turning to chain 1 D568R, the screen value is less than -3.06. For chain 1 W569M, the screen value was -2.99. On the same count and under the same terms, then chain 1 W569K, with -3.02; and chain 1 D566R, with -3.03; and chain 1 D566C, with less than -3.06. On to chain 1 D566F, for which the screen value was -2.99. As to chain 1 D566S, the screen value was less than -3.06. The same measure, in the same setting: the same measure for chain 1 Y541R: -3.01. As for chain 1 S585Q, the screen value was less than -3.06.
